Experimental findings from patent publication US20220324932A1 (CSPC MEGALITH BIOPHARMACEUTICAL, published 2022) are described below.

This test deals with T1, IL-2Rα (CD25) on the cell surface of mouse T cells (CTLL-2 cells; Treg cells of C57BL/6 mice) (mouse, UniProt P01590 22-268).
T1 sequence (looked up): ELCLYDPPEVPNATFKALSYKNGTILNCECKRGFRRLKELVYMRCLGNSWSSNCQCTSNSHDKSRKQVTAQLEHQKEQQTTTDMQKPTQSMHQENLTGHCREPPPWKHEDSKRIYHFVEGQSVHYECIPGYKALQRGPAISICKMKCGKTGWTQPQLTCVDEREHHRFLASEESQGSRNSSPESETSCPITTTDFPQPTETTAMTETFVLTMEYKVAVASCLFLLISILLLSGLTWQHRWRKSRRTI
As to the kind of experiment: cell-based or functional assay.

B1: IL-2A2 (modified IL-2 protein with exogenous patch sequence IFKQTY replacing a portion of IL-2 Aldesleukin) (ligand)
chain: PTSSSTKKTQLQLEHLLLDLQMILNGINNYKNPKLTRMLIFKQTYPKKATELKHLQCLEEELKPLEEVLNLAQSKNFHLRPRDLISNINVIVLELKGSETTFMCEYADETATIVEFLNRWITFSQSIISTLT
Turning to B1, the “fold decrease in bioactivity in inducing CTLL-2 cell growth, compared to parent IL-2 Aldesleukin” value is about 49 fold and the “percentage of Treg cells in blood of C57BL/6 mice after treatment” value turned out to be 0.32%.

B2: PEG-20K-IL-2A2 (IL-2A2 conjugated with 20 kDa methoxy-PEG-amine) (ligand)
chain: PTSSSTKKTQLQLEHLLLDLQMILNGINNYKNPKLTRMLIFKQTYPKKATELKHLQCLEEELKPLEEVLNLAQSKNFHLRPRDLISNINVIVLELKGSETTFMCEYADETATIVEFLNRWITFSQSIISTLT
modifications: 20 kDa methoxy-PEG-amine conjugated by mTGase to the engineered Q residue of the IFKQTY patch
As for B2, the “percentage of Treg cells in blood of C57BL/6 mice after treatment” value was found to be 0.25%.
